One test addresses T1, PD-1 biotin (UniProt Q15116 25-167, limits assumed, biotin (site not stated)).
T1 construct: also called biotinylated PD-1
Put plainly: PD-1/PD-L1 blocking ELISA, interpolated on a standard curve of a PD-1 neutralizing antibody. Here is the method:
The ability of disclosed PD-1 antibodies to block the PD-1/PD-L1 interaction was assessed using an ELISA based assay.
Briefly, human PD-L1 was immobilized on 96 well ELISA plates. Plates were washed and blocked for 1.5 hours at 37° C. with block buffer. Plates were washed and test PD-1 antibodies, isotype controls, or a standard curve of PD-1 neutralizing antibody were added to the coated plate and incubated for 1 hour at 37° C. […] Following washing, streptavidin-HRP was added to the plate and the plate was incubated at 37° C. for 1 hour. After a final wash, antibody binding was detected colorimetrically by adding a subrate solution and incubating for 20 minutes protected from light before adding stop solution. Absorbance at 450 nm was measured on a plate reader (PerkinElmer). Data was analyzed using GraphPad Prism.
Percent blocking of tested PD-1 antibodies was determined by interpolating values obtained from each sample against the standard control curve (see FIG. 1) and summarized in Table 4.
In general terms: ELISA stands for enzyme-linked immunosorbent assay.

In test [1] the target is T2, CD28 extracellular domain (PD-1 family member) (UniProt P10747 19-152, limits assumed).
T2 construct: extracellular domain; not shown: His tag
T2 sequence (P10747 19-152 limits assumed): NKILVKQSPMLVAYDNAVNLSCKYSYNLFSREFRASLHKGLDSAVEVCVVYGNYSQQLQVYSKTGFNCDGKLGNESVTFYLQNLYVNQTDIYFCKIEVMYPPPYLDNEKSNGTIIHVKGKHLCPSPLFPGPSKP
The test is described as follows: ELISA, His-tagged extracellular domain on plate. How it is done:
(§1) His-tagged extracellular domains of human PD-1, cynomolgus PD-1, and PD-1 family members ICOS, CD28, and CTLA-4 extracellular domains were immobilized on 96 well ELISA plates. Plates were washed with PBST (phosphate buffered saline+0.05% Tween 20) and blocked for 1 hour with 1% BSA in PBS. Following washing with PBST, test PD-1 antibodies were added to the coated plate and incubated for 2 hours at room temperature. Plates were washed and incubated with HRP-conjugated goat anti-human IgG secondary antibody for 1 hour at room temperature. Following washing, antibody binding was detected colorimetrically by adding 3,3′,5,5′-tetramethylbenzidine (TMB) and incubated at room temperature for 10-20 minutes before adding 2.5N sulfuric acid stopping solution. Absorbance at 450 nm was measured on a plate reader (PerkinElmer). Data was analyzed using Graph-Pad Prism.

Test [2] addresses T3, CTLA-4 extracellular domain (PD-1 family member) (UniProt P16410 36-161, limits assumed).
T3 construct: extracellular domain; not shown: His tag
T3 sequence (looked up): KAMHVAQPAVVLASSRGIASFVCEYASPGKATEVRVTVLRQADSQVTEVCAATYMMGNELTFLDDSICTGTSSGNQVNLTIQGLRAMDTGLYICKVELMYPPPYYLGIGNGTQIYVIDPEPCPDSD
The test is described as follows: ELISA, His-tagged extracellular domain on plate. How it is done:
as §1

Test [3] addresses T4, ICOS extracellular domain (PD-1 family member) (UniProt Q9Y6W8 21-140, limits assumed).
T4 construct: extracellular domain; not shown: His tag
T4 sequence (looked up): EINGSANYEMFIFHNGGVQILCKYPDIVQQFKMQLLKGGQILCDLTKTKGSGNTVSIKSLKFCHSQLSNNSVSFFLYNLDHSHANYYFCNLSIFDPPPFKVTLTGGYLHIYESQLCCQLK
The test is described as follows: ELISA, His-tagged extracellular domain on plate. How it is done: as §1

T1 sequence (Q15116 25-167 limits assumed): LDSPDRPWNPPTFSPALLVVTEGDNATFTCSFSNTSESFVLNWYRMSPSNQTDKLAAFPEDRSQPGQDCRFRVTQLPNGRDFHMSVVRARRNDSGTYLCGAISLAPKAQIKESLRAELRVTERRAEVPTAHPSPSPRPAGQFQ

B1: PD-1 antibody 3H4 (antibody, V domains shown)
VH: QIQLQQSGPELVKPGASVKISCKASGYTFTDYYINWVKQKPGQGLEWIGWIYPGSVNTKYNEKFRGKATLTVDTSSSTAYIQLSGLTSEDTAVYFCARYSNWFFDVWGAGTAVTVS
VL: DIVMTQSPSSLSASLGERVSLTCRASQEISGYLSWLQQKPDGTIKRLIYAASTLDSGVPKRFSGSRSGSDYSLSISSLESEDFADYYCLQYASYPYTFGGGTKLEIKR
notes: detection used an anti-human IgG secondary antibody; also called Murine 3H4
As for B1, the “Percent Blocking” value in the test with PD-1 biotin is 46 percent. In addition, the binding result in test [1], in test [2] and in test [3] was “no binding” in each case.

B2: PD-1 antibody 1-17 (antibody, V domains shown)
VH: QVQLQESGPGVVKPSGTLSLTCAISGGSIGSGGSIRSTRWWSWVRQSPGKGLEWIGEIYHSGSTNYNPSLKSRVTISLDKSRNHFSLRLNSVTAADTAVYYCARQDYGDSGDWYFDLWGKGTMVTVSS
VL: NFMLTQPHSVSESPGKTVTISCTRSSGSIASNSVQWYQQRPGSSPTTVIYEDNQRPSGVPDRFSGSIDSSSNSASLTVSGLKTEDEADYYCQSSDSSAVVFGSGTKLTVL
notes: detection used an anti-human IgG secondary antibody
Regarding B2, the “Percent Blocking” value in the test with PD-1 biotin was found to be 7 percent. Further, the binding result in test [1], in test [2] and in test [3] was “no binding” in each case.

B3: PD-1 antibody 20B3.1 (antibody, V domains shown)
VH: EVKLVESGGGLVKPGGSLKLSCAASGFTFSSFGMSWVRQTPEKRLEWVATISGGGSNTYYPDSVKGRFTISRDNAKNNLYLQMTSLTSEDTALYYCTRIYDVAWFAYWGQGTLVTVS
VL: not shown
notes: detection used an anti-human IgG secondary antibody; also called Murine 20B3.1
Take B3: the “Percent Blocking” value in the test with PD-1 biotin was 94 percent. For the same molecule, the binding result in test [1], in test [2] and in test [3] was “no binding” throughout.

B4: PD-1 antibody 1-28 (antibody, V domains shown)
VH: EVQLVQSGAEVKKPGASVKVSCKASGYRFTSYGISWVRQAPGQGLEWMGWISAYNGNTNYAQKLQGRVTMTTDTSTNTAYMELRSLRSDDTAVYYCARDADYSSGSGYWGQGTLVTVSS
VL: SYELTQPPSVSVSPGQTARITCSGDALPKQYAYWYQQKPGQAPVMVIYKDTERPSGIPERFSGSSSGTKVTLTISGVQAEDEADYYCQSADNSITYRVFGGGTKVTVL
notes: as for B2
Regarding B4, in the test with PD-1 biotin, the “Percent Blocking” value is 87 percent. In addition, the binding result in test [1], in test [2] and in test [3] was “no binding” throughout.

B5: PD-1 antibody 1B8 (antibody, V domains shown)
VH: EVQLVLSGGGFVQPGGSLKLSCAASGFTFSSYAMSWVRQNPERRLVWVATITGGGRNTYYPDSVKGRFTISRDNAKNTLYLQMSSLRSEDTAMYYCTRQGYDGYTWFAYWGQGTLVTVS
VL: not shown
notes: detection used an anti-human IgG secondary antibody; also called Murine 1B8
B5: the “Percent Blocking” value in the test with PD-1 biotin is 90 percent. In addition, the binding result in test [1], in test [2] and in test [3] was “no binding” throughout.

B6: PD-1 antibody 1-33 (antibody, V domains shown)
VH: QVQLVQSGAEVKKPGASVRVSCKASGYTLTSYYIHWVRQAPGQGLEWMGIINPRGATISYAQKFQGRVTMTRDTSTSTVYMELRNLKSEDTALYYCATAGIYGFDFDYWGRGTLVTVSS
VL: QSALTQPASVSGSPGQSITISCTGTSNDVGGYNYVSWYQHHPGKAPKLIIYDVTNRPSGVSDRFSGSKSGNTASLTISGLLAEDEGDYYCSSYTIVTNFEVLFGGGTKLTV
notes: as for B2
Turning to B6, the “Percent Blocking” value with PD-1 biotin came out at 68 percent. Further, the binding result in test [1], in test [2] and in test [3] was “no binding” each time.

B7: PD-1 antibody 2.3A9 (antibody, V domains shown)
VH: QVQLQQSDAELVKPGTSVKISCKASGYTFTDHAIHWLKQEPDQGLEWIGYISPGYGDIEYNEKFKGKATLTADKSSSTAYMQLSSLTSEDSAVYFCKVTTGYWGQGTTLTVS
VL: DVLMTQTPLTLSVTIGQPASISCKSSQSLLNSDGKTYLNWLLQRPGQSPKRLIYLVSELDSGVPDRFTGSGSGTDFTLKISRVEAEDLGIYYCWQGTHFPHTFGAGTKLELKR
notes: detection used an anti-human IgG secondary antibody; also called Murine 2.3A9
Turning to B7, in the test with PD-1 biotin, the “Percent Blocking” value was found to be 0 percent. In addition, the binding result in test [1], in test [2] and in test [3] was “no binding” in each case.

B8: PD-1 antibody 1-35 (antibody, V domains shown)
VH: QVQLQESGPGLVKPSQTLSLTCTVSGGSISSGAYYWSWIRQHPGKGLEWIGYIYYNGNTYYNPSLRSLVTISVDASKNQFSLKLSSVTAADTAVYYCARASDYVWGGYRYMDAFDIWGRGTLITVSS
VL: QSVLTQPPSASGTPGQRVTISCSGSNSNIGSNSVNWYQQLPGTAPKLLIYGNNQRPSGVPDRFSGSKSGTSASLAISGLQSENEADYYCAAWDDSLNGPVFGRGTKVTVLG
notes: as for B2
B8: the “Percent Blocking” value with PD-1 biotin is 58 percent. For the same molecule, the binding result in test [1], in test [2] and in test [3] was “no binding” throughout.

(Values after patent publication US20260055187A1 (SANTA ANA BIO, published 2026).)
